From article PMC9751120 (Cell Death and Differentiation, 2022)

T1: ΔNp63α (human, UniProt Q9H3D4-2 1-586)
T1 construct: open, tetrameric; also called DNp63a; source: E. coli, bacterially expressed and purified (IMAC, SEC on Superose 6)
T1 sequence (looked up): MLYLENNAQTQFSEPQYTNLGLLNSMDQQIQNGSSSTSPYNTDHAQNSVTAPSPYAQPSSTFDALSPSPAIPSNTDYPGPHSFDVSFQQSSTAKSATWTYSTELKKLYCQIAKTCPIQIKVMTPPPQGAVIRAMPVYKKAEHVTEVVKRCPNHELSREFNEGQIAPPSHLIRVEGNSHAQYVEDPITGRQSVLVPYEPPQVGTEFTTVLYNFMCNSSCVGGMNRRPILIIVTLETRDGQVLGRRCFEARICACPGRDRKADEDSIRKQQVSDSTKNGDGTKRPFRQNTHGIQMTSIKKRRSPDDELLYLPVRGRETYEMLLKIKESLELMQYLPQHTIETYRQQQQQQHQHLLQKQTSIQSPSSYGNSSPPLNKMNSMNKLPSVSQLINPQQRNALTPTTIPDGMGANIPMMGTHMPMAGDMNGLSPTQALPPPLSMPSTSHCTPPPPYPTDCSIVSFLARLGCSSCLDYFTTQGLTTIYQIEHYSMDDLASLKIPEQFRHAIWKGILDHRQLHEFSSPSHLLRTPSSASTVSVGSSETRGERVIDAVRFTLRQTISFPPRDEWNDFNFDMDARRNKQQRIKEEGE

B1: DARPin G4 (designed binder)
chain: GSDLGKKLLEAARAGQDDEVRILMANGADVNAADHSGDTPLHLAAMEGHLEIVEVLLKTGADVNAHDLEGYTPLHLAAYHGHLEIVEVLLKAGADVNAWDSYGYTPLHLAAMTGHLEIVEVLLKHGADVNAQDKFGKTPFDLAIDNGNEDIAEVLQKAA
modifications: G4 assigned to 7Z7E by elimination: 7Z71 = C14, 7Z72 = A5, 7Z73 = 8F1; 7Z7E is the other p63 DBD-DARPin complex
B2: Alexa 488 labeled DARPin G4 (designed binder)
chain: GSDLGKKLLEAARAGQDDEVRILMANGADVNAADHSGDTPLHLAAMEGHLEIVEVLLKTGADVNAHDLEGYTPLHLAAYHGHLEIVEVLLKAGADVNAWDSYGYTPLHLAAMTGHLEIVEVLLKHGADVNAQDKFGKTPFDLAIDNGNEDIAEVLQKAA
modifications: Alexa Fluor 488 C5 maleimide on the C-terminal cysteine

Assays:
Settings in all cases: both partners purified
p63 DNA-binding domain = biological target: T2, p63 DNA-binding domain (human); test: ITC; target protein titrated into a constant concentration of DARPin, 25 injections of 10 µl; 50 mM HEPES pH 7.4, 150 mM NaCl, 0.5 mM TCEP; 10 °C; AB hetero-association model (SEDPHAT)
T2 construct: also called p63 DBD; source: E. coli BL21(DE3) Rosetta, purified (IMAC, TEV digestion, reverse IMAC, SEC)

p73 DNA-binding domain = biological target: T3, p73 DNA-binding domain; test: ITC; target protein titrated into a constant concentration of DARPin, 25 injections of 10 µl; 50 mM HEPES pH 7.4, 150 mM NaCl, 0.5 mM TCEP; 25 °C; AB hetero-association model (SEDPHAT)
T3 construct: also called p73 DBD; source: E. coli BL21(DE3) Rosetta, purified (IMAC, TEV digestion, reverse IMAC, SEC)

ΔNp63α = biological target: T1, ΔNp63α; test: fluorescence polarisation; fluorescence anisotropy; 500 nM Alexa 488 labeled DARPin constant, p63 isoform 0-10 µM; 50 mM Tris pH 8, 150 mM NaCl, 0.5 mM TCEP, 0.1 % Tween-20; the sheet says 20 °C, the methods 16 °C
TAp63α = biological target: T4, TAp63α (human); test: as above
T4 construct: closed, dimeric; also called TAp63a; source: E. coli, bacterially expressed and purified (IMAC, SEC on Superdex 200)

Binder	Ka (p63 DNA-binding domain)	Ka (p73 DNA-binding domain)	Kd (ΔNp63α)	Kd (TAp63α)
B1	3.14e+07 M⁻¹	4.48e+06 M⁻¹	–	–
B2	–	–	137 nM	727 nM
